Measured values: patent US20240327500A1 (NATIONAL UNIVERSITY OF SINGAPORE, published 2024)
No end group written: not given here.

T1: HBsAg loop 1 linear peptide (Hepatitis B virus, not fully specified; cysteine pairing not given here)
T1 construct: The peptide is printed with alternative residues at two positions
T1 peptide: TCTTPAQGNSMFPSC

T2: HBsAg loop 2 linear peptide (Hepatitis B virus, not fully specified; cysteine pairing not given here)
T2 construct: The peptide is printed with alternative residues at one position
T2 peptide: CTKPTDGNCT

B1: mAb006-11-IgG4 (antibody, V domains shown)
VH: QLQLQESGPGLVKPSETLSLTCTVSGGSMNINDYYWDWVRLSPGKGLEWIGAIYSSGTTYYNPSLKSRVTISVDMSKDQFSLRLSSVTAADTAVYYCVRDGPHRLYYGSGTYYNPRGGYYSYALDVWGQGTTVIV
VL: QLVLTQSPSASASLGASVKLTCTLSSGHGTYAIAWHQLRSEKGPRYLMKVNSDGSHIKGDGIPDRFSGSSSGAERYLIISSLQSEDEADYYCQTWGTGIVIFGGGTKLTVL
B2: mAb006-11-IgG2 (antibody, V domains shown)
VH: B1 VH
VL: B1 VL
B3: mAb006-11-IgG1 (antibody, V domains shown)
VH: B1 VH
VL: B1 VL
notes: also called mAb11; mAb006-11G1
B4: mAb006-11-IgG3 (antibody, V domains shown)
VH: B1 VH
VL: B1 VL

Key:
HBV virions (Genotype D) = HBV virions (Genotype D) (Hepatitis B virus genotype D); experiment: cell-based or functional assay
recombinant small-HBsAg = target: T3, recombinant small-HBsAg (Hepatitis B virus); experiment: QCM (Attana Cell A200), rHBsAg amine-coupled on chip, 25 C
T3 construct: also called recombinant HBsAg; rHBsAg

HBsAg genotype A (adw2) = target: T4, HBsAg genotype A (adw2) (Hepatitis B virus genotype A (adw2), UniProt P03141 175-400); experiment: ELISA on HBsAg of four genotypes
T4 construct: the form coated in the ELISA is not described

HBsAg genotype B (adw) = target: T5, HBsAg genotype B (adw) (Hepatitis B virus genotype B (adw), UniProt Q9PWW3 175-400); experiment: ELISA on HBsAg of four genotypes
T5 construct: the form coated in the ELISA is not described

HBsAg genotype C (adr) = target: T6, HBsAg genotype C (adr) (Hepatitis B virus genotype C (adr), UniProt P30019 1-226); experiment: ELISA on HBsAg of four genotypes
T6 construct: the form coated in the ELISA is not described

[1] = target: T1, HBsAg loop 1 linear peptide; experiment: direct ELISA on coated linear peptide (50 ng/well)
[2] = target: T2, HBsAg loop 2 linear peptide; experiment: direct ELISA on coated linear peptide (50 ng/well)

Binder | EC50, in-vitro neutralization (HBeAg data) (HBV virions (Genotype D)) [nM] | Kd (recombinant small-HBsAg) [nM] | binding result (HBsAg genotype A (adw2)) | binding result (HBsAg genotype B (adw)) | binding result (HBsAg genotype C (adr)) | binding result [1] | binding result [2]
B1 | 0.242 | – | – | – | – | – | –
B2 | 1.32 | – | – | – | – | – | –
B3 | 12.6 | 22.7 | binds | binds | binds | no binding | no binding
B4 | 1.05 | – | – | – | – | – | –
